Values quoted from earlier work in PMC4184475.

Tests used:
[1] = target: Cys473 (UniProt position 487, ILIFHCEFSSE); conditions: reduced thiol form (implied); otherwise not stated
[2] = target: Cys106 (UniProt position 106, LIAAICAGPTA); conditions: reduced thiol form (implied); otherwise not stated

Row | Substance | pKa [1] | pKa [2]
1 | Cdc25B phosphatase (M-phase inducer phosphatase 2) (Homo sapiens) | 5.8 | 
2 | DJ-1 (Parkinson disease protein 7) (Homo sapiens) |  | 5.4
